According to paper PMC7726095 (Current biology : CB, 2020):

Target: APC-B (APC Basic domain, residues 2167-2674), without SNAP (human, UniProt P25054 2167-2674)
Assay: other fluorescence titration

IC50: ~300 nM
B1: EB1 (full-length, untagged, unlabeled) (natural protein, human, UniProt Q15691 1-268, looked up)
chain: MAVNVYSTSVTSDNLSRHDMLAWINESLQLNLTKIEQLCSGAAYCQFMDMLFPGSIALKKVKFQAKLEHEYIQNFKILQAGFKRMGVDKIIPVDKLVKGKFQDNFEFVQWFKKFFDANYDGKDYDPVAARQGQETAVAPSLVAPALNKPKKPLTSSSAAPQRPISTQRTAAAPKAGPGVVRKNPGVGNGDDEAAELMQQVNVLKLTVEDLEKERDFYFGKLRNIELICQENEGENDPVLQRIVDILYATDEGFVIPDEGGPQEEQEEY
